Patent US20250051454A1 (DUKE UNIVERSITY, published 2025)

Legend:
[1] = biological target: T1, HLA-E-RL9HIV single chain trimer on transfected 293T cells (human, UniProt P61769 21-119; P13747 22-358); assay: flow cytometry, SCT-transfected 293T cells, MFI bar chart [E]
T1 construct: also called control HLA-E-peptide complex

[2] = biological target: T2, HLA-E-RL9SIV single chain trimer on transfected 293T cells (human, UniProt P61769 21-119; P13747 22-358); assay: as above
T2 construct: also called control HLA-E-peptide complex

| Binder | binding result [1] | binding result [2] |
| --- | --- | --- |
| CA146 (antibody, V domains shown) VH: EVQLVQSGGGVVQPGRSLRLSCAASGFTFSSYGMHWVRQAPGKGLEWVAVISYDGSNKYYADSVKGRFTISRDNSKNTLYLQMNSLRAEDTAVYYCAKDRYSIVGATSNGMDVWGQGTTVTVSS VL: not shown | no binding (tested: 2 µg/ml) | no binding (tested: 2 µg/ml) |
| CA118 (antibody, V domains shown) VH: EVQLVESGGGLVKPGGSLRLSCAASGFTFSSYSMNWVRQAPGKGLEWVSSISSSSSYIYYADSVKGRFTISRDNAKNSLYLQMNSLRAEDTAVYYCARGWQQLAYWDYWGQGTLVTVSS VL: SYELTQPPSVSVAPGQTARITCGGNNIGSKSVHWYQQKPGQAPVLVVYDDSDRPSGIPERFSGSNSGNTATLTISRVEAGDEADYYCQVWDSSSDHYVFGTGTKVTVL | no binding (tested: 2 µg/ml) | no binding (tested: 2 µg/ml) |
| CA150 (antibody, V domains shown) VH: QVQLVQSGAEVKKPGSSVKVSCKASGGTFSSYAISWVRQAPGQGLEWMGGIIPIFGTANYAQKFQGRVTITADESTSTAYMELSSLRSEDTAVYYCASFPNCSSTSCYYYYYMDVWGKGTTVTVSS VL: QSALTQPASVSGSPGQSITISCTGTSSDVGGYNYVSWYQQHPGKAPKLMIYDVSNRPSGVSNRFSGSKSGNTASLTISGLQAEDEADYYCSSYTSSSTRDVVFGGGTKLTVL | no binding (tested: 2 µg/ml) | no binding (tested: 2 µg/ml) |
| CA148 (antibody, V domains shown) VH: QVQLVQSGAEVKKPGASVKVSCKASGYTFTSYGISWVRQAPGQGLEWMGWISAYNGNTNYAQKLQGRVTMTTDTSTSTAYMELRSLRSDDTAVYYCARTPGDEYYYYYYMDVWGKGTTVTVSS VL: EIVLTQSPATLSLSPGERATLSCRASQSVSSYLAWYQQKPGQAPRLLIYDASNRATGIPARFSGSGSGTDFTLTISSLEPEDFAVYYCQQRSNWPRTFGQGTKLEIK | no binding (tested: 2 µg/ml) | no binding (tested: 2 µg/ml) |
| CA128 (antibody, V domains shown) VH: QVQLVQSGGGLVKPGGSLRLSCAASGFTFSDYYMSWIRQAPGKGLEWVSYISSSGSTIYYADSVKGRFTISRDNAKNSLYLQMNSLRAEDTAVYYCARDSGSFVGVFDYWGQGTLVTVSS VL: not shown | no binding (tested: 2 µg/ml) | no binding (tested: 2 µg/ml) |
| CA145 (antibody, V domains shown) VH: EVQLVESGGGLVKPGGSLRLSCAASGFTFSDYYMSWIRQAPGKGLEWVSYISSSGSTIYYADSVKGRFTISRDNAKNSLYLQMNSLRAEDTAVYYCARDVLELRWWFDPWGQGTLVTVSS VL: not shown | no binding (tested: 2 µg/ml) | no binding (tested: 2 µg/ml) |
| CA141 (antibody, V domains shown) VH: QVQLQESGGGLVKPGGSLRLSCAASGFTFSSYSMNWVRQAPGKGLEWVSSISSSSSYIYYADSVKGRFTISRDNAKNSLYLQMNSLRAEDTAVYYCARASENGDDAFDIWGQGTMVTVSS VL: EIVLTQSPATLSLSPGERATLSCRASQSVSSYLAWYQQKPGQAPRLLIYDASNRATGIPARFSGSGSGTDFTLTISSLEPEDFAVYYCQQRSNWPPYTFGQGTKLEIK | no binding (tested: 2 µg/ml) | no binding (tested: 2 µg/ml) |
| CA143 (human antibody on a human IgG1 backbone) (antibody, V domains shown) VH: QVQLVQSGGGLVKPGGSLRLSCAASGFTFSSYSMNWVRQAPGKGLEWVSSISSSSSYIYYADSVKGRFTISRDNAKNSLYLQMNSLRAEDTAVYYCARDSLPAGDYFDYWGQGTLVTVSS VL: DIQLTQSPSFLSASVGDRVTITCRASQGISSYLAWYQQKPGKAPKLLIYAASTLQSGVPSRFSGSGSGTEFTLTISSLQPEDFATYYCQQLNSYPQTTFGGGTKVEIK | no binding (tested: 2 µg/ml) | no binding (tested: 2 µg/ml) |
| CA144 (antibody, V domains shown) VH: QVQLVQSGGGLVKPGGSLRLSCAASGFTFSSYSMNWVRQAPGKGLEWVSSISSSSSYIYYADSVKGRFTISRDNAKNSLYLQMNSLRAEDTAVYYCARDRVEMAFHFDYWGQGTLVTVSS VL: not shown | no binding (tested: 2 µg/ml) | no binding (tested: 2 µg/ml) |
| CA131 (antibody, V domains shown) VH: QVQLQESGSGLVKPSQTLSLTCAVSGGSISSGGYSWSWIRQPPGKGLEWIGYIYHSGSTYYNPSLKSRVTISVDRSKNQFSLKLSSVTAADTAVYYCATGGGHKELGGWGPRGTLVTVSS VL: not shown | no binding (tested: 2 µg/ml) | no binding (tested: 2 µg/ml) |
| CA124 (antibody, V domains shown) VH: EVQLVQSGGGLVKPGGSLRLSCAASGFTFSDYYMSWIRQAPGKGLEWVSYISSSGSTIYYADSVKGRFTISRDNAKNSLYLQMNSLRAEDTAVYYCASGFSSWGADDYWGQGTLVTVSS VL: DIVMTQSPSSLSASVGDRVTITCRASQGISNYLAWFQQKPGKAPKSLIYAASSLQSGVPSKFSGSGSGTDFTLTISSLQPEDFATYYCQQYNSYPLTFGQGTKLEIK | no binding (tested: 2 µg/ml) | no binding (tested: 2 µg/ml) |
| CA139 (antibody, V domains shown) VH: not shown VL: DIVMTQSPSSLSASVGDRVTITCRASQGISNYLAWFQQKPGKAPKSLIYAASSLQSGVPSKFSGSGSGTDFTLTISSLQPEDFATYYCQQYNSYPLTFGGGTKVEIK | no binding (tested: 2 µg/ml) | no binding (tested: 2 µg/ml) |
| CA149 (antibody, V domains shown) VH: EVQLVESGGGLVKPGGSLRLSCAASGFTFSSYSMNWVRQAPGKGLEWVSSISSSSSYIYYADSVKGRFTISRDNAKNSLYLQMNSLRAEDTAVYYCARCAAGFVPDAFDIWGQGTMVTVSS VL: not shown | no binding (tested: 2 µg/ml) | no binding (tested: 2 µg/ml) |
| CA171 (antibody, V domains shown) VH: EVQLVESGGGLVQPGGSLRLSCAASGFTFSSYSMNWVRQAPGKGLEWVSYISSSSSTIYYADSVKGRFTISRDNAKNSLYLQMNSLRAEDTAVYYCARTFYSNYLDAFDIWGQGTMVTVSS VL: EIVLTQSPDTLSMCPGERATLSCRASQSVSSYLAWYQQKPGQAPRLLIYDASNRATGIPARFSGSGSGTDFTLTISSLEPEDFAVYYCQQRSNWLSMYTFGQGTKLEIK | no binding (tested: 2 µg/ml) |  |
| CA134 (antibody, V domains shown) VH: EVQLVESGGGLVKPGGSLRLSCAASGFTFSSYSMNWVRQAPGKGLEWVSSISSSSSYIYYADSVKGRFTISRDNAKNSLYLQMNSLRAEDTAVYYCARVFGEQLVSFFDYWGQGTLVTVSS VL: not shown | no binding (tested: 2 µg/ml) | no binding (tested: 2 µg/ml) |
| CA125 (antibody, V domains shown) VH: EVQLVESGGGLVKPGGSLRLSCAASGFTFSSYSMNWVRQAPGKGLEWVSSISSSSSYIYYADSVKGRFTISRDNAKNSLYLQMNSLRAEDTAVYYCARVVDTAMGDAFDIWGQGTMVTVSS VL: not shown | no binding (tested: 2 µg/ml) | no binding (tested: 2 µg/ml) |
